Measurements from the supplement of paper PMC9876800.

System: peptide library, one residue held at a place counted from the S/T acceptor
Assay: relative phosphorylation of the sub-library (ratio to the mean residue at this position); human; higher = residue favoured
Outline: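 Relative sub-library phosphorylation is the ratio of each sub-library's signal to the mean residue at that position. The signal came from phosphorimaging of spots on streptavidin membranes, quantified by densitometry, after purified recombinant kinases reacted with biotinylated degenerate peptide sub-libraries in 384-well plates. Reactions held 50 μM peptide and 50 μM ATP spiked with γ-32P-ATP for 90 min under kinase-specific conditions.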

Sequence of NEK6, construct: Full length (Q9HC98 whole entry, looked up): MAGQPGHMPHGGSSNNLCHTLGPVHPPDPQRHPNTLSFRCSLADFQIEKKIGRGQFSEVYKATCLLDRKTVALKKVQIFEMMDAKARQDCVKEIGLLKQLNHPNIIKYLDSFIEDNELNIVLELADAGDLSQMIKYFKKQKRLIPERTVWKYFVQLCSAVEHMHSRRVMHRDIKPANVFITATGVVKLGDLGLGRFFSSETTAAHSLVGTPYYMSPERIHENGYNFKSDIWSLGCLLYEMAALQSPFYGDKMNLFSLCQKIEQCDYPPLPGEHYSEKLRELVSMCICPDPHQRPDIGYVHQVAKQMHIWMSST
Sequence of NEK4, construct: Full length (P51957 whole entry, looked up): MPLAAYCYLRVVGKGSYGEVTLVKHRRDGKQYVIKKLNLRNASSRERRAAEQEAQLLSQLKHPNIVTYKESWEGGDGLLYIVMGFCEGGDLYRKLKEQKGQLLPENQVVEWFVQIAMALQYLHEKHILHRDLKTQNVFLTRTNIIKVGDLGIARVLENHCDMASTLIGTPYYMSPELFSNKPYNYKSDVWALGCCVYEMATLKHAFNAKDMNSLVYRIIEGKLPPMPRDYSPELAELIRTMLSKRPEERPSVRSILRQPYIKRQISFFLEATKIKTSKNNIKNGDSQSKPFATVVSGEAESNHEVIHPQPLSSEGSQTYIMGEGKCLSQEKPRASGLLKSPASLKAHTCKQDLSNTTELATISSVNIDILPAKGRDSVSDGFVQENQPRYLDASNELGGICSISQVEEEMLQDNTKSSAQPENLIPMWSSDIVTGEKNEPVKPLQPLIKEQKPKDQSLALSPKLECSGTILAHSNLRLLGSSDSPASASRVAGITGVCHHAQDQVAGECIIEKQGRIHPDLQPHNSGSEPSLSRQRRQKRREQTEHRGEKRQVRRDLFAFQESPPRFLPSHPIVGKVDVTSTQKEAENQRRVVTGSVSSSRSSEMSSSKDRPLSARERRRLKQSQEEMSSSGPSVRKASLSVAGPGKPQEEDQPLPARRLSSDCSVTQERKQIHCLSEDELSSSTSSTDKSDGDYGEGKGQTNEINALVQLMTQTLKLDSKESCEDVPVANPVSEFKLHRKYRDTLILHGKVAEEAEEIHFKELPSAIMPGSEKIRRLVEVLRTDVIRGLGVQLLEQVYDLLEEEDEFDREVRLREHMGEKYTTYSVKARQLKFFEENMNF
Sequence of NEK1, construct: aa1-505 (Q96PY6 1-505, looked up): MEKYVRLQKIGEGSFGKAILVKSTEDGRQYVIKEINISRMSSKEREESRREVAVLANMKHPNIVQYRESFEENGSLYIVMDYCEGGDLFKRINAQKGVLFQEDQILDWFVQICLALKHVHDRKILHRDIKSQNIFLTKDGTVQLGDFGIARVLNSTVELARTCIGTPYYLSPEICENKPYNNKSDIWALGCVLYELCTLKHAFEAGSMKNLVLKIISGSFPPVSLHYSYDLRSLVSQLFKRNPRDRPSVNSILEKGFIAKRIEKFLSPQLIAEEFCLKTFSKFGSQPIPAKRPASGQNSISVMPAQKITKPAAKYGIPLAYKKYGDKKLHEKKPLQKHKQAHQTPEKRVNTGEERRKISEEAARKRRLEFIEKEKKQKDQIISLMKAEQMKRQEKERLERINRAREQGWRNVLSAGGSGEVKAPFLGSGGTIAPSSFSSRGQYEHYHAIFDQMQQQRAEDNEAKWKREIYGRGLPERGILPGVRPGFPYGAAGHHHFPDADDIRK
Sequence of NEK11, construct: Full length (Q8NG66 whole entry, looked up): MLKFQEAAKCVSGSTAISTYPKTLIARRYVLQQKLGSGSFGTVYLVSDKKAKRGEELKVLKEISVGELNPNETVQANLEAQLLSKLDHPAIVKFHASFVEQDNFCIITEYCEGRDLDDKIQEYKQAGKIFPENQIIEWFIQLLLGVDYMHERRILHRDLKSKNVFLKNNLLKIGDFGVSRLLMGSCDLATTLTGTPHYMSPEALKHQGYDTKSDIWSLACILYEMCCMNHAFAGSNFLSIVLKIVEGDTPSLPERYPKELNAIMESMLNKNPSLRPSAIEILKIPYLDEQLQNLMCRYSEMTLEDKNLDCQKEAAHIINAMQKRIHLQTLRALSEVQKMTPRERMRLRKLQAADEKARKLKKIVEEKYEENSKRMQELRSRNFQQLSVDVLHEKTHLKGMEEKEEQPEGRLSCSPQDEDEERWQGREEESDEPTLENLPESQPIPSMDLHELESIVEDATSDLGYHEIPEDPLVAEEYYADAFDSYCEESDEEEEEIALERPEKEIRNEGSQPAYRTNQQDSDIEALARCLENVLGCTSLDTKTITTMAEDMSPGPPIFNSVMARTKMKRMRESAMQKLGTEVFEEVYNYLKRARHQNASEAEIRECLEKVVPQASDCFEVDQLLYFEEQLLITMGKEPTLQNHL

NEK1, construct: aa1-505 (from UniProt Q96PY6)
relative phosphorylation
Details | at +1 | at +2 | at +3 | at +4 | at -1 | at -2 | at -3 | at -4 | at -5
A fixed | 0.882 | 1.08 | 0.91 | 1.02 | 1.2 | 1 | 0.996 | 1.04 | 0.968
D fixed | 0.22 | 0.456 | 0.504 | 0.774 | 0.566 | 0.69 | 0.378 | 0.781 | 0.764
E fixed | 0.268 | 0.389 | 0.41 | 0.732 | 0.713 | 0.706 | 0.373 | 0.785 | 0.678
F fixed | 1.36 | 0.744 | 1.2 | 0.804 | 0.891 | 0.98 | 1.61 | 1.06 | 1.15
G fixed | 1.11 | 0.85 | 1.05 | 1.18 | 1.3 | 1.2 | 1.41 | 1.3 | 1.06
H fixed | 1.02 | 1.22 | 1.03 | 1.11 | 1.21 | 1.08 | 1.14 | 0.962 | 1.05
I fixed | 1.27 | 0.769 | 0.991 | 0.792 | 0.424 | 0.849 | 0.571 | 0.844 | 0.858
K fixed | 1.16 | 2.06 | 1.03 | 1.38 | 1.46 | 0.75 | 1.03 | 1.33 | 1.24
L fixed | 1.32 | 0.939 | 1.17 | 1 | 1.08 | 1.58 | 1.82 | 1.12 | 1.1
M fixed | 1.67 | 0.975 | 0.907 | 0.93 | 1.41 | 1.24 | 1.62 | 0.996 | 1.13
N fixed | 0.61 | 1.02 | 0.935 | 0.912 | 1.05 | 1.29 | 0.629 | 0.87 | 0.959
P fixed | 0.142 | 0.95 | 1.12 | 1.15 | 0.558 | 0.677 | 1.25 | 1.14 | 1.4
Q fixed | 1.05 | 0.706 | 0.724 | 1.01 | 0.889 | 1.04 | 0.668 | 0.799 | 0.889
R fixed | 1.51 | 2.21 | 1.63 | 1.38 | 1.57 | 1.27 | 0.919 | 1.08 | 1.15
V fixed | 0.958 | 0.914 | 0.851 | 0.78 | 0.522 | 0.713 | 0.444 | 0.783 | 0.82
W fixed | 1.27 | 0.727 | 1.37 | 1.29 | 0.895 | 1.04 | 1.08 | 1.23 | 0.947
Y fixed | 1.18 | 0.996 | 1.18 | 0.738 | 1.26 | 0.89 | 1.06 | 0.887 | 0.835
pThr fixed | 0.424 | 0.571 | 0.507 | 0.579 | 0.323 | 0.516 | 0.508 | 0.746 | 0.905
pTyr fixed | 0.397 | 0.434 | 0.642 | 0.547 | 0.707 | 0.523 | 0.648 | 0.851 | 1.03

NEK4, construct: Full length (from UniProt P51957)
relative phosphorylation
Details | at +1 | at +2 | at +3 | at +4 | at -1 | at -2 | at -3 | at -4 | at -5
A fixed | 0.695 | 0.961 | 0.797 | 0.821 | 1.32 | 0.985 | 1.18 | 1.02 | 0.983
D fixed | 0.169 | 0.409 | 0.375 | 0.693 | 0.63 | 0.601 | 0.422 | 0.811 | 0.797
E fixed | 0.153 | 0.368 | 0.341 | 0.66 | 0.638 | 0.505 | 0.416 | 0.733 | 0.662
F fixed | 1.03 | 0.851 | 1.73 | 1.03 | 0.868 | 1.16 | 1.64 | 1.14 | 1.21
G fixed | 0.921 | 0.795 | 0.91 | 1.16 | 1.25 | 1.16 | 1.2 | 1.32 | 1.04
H fixed | 0.775 | 1.2 | 1.1 | 1.08 | 1.02 | 1.02 | 0.998 | 1.05 | 1.03
I fixed | 1.63 | 0.625 | 0.899 | 0.69 | 0.583 | 0.8 | 0.658 | 0.754 | 0.822
K fixed | 0.974 | 2.01 | 0.977 | 1.56 | 1.4 | 0.902 | 0.985 | 1.17 | 1.16
L fixed | 2.19 | 0.939 | 1.23 | 0.996 | 1.06 | 1.61 | 1.9 | 1.12 | 0.79
M fixed | 2.2 | 1.04 | 1.07 | 0.932 | 1.36 | 1.47 | 1.72 | 0.969 | 0.966
N fixed | 0.592 | 0.86 | 0.652 | 0.92 | 0.935 | 1.43 | 0.674 | 0.913 | 0.962
P fixed | 0.176 | 0.993 | 1.03 | 1.28 | 0.374 | 0.588 | 0.973 | 0.912 | 1.22
Q fixed | 1.02 | 0.971 | 0.842 | 1.08 | 1.09 | 1.01 | 0.766 | 0.916 | 0.983
R fixed | 1.17 | 2.43 | 1.25 | 1.31 | 1.77 | 1.07 | 0.953 | 1.04 | 1.32
V fixed | 0.929 | 0.838 | 0.74 | 0.653 | 0.666 | 0.677 | 0.573 | 0.835 | 0.878
W fixed | 1.44 | 0.722 | 1.62 | 1.25 | 0.925 | 1.18 | 1.02 | 1.31 | 1.11
Y fixed | 0.937 | 0.986 | 1.44 | 0.891 | 1.09 | 0.832 | 0.921 | 1 | 1.08
pThr fixed | 0.423 | 0.506 | 0.526 | 0.476 | 0.332 | 0.64 | 0.735 | 0.793 | 0.867
pTyr fixed | 0.248 | 0.588 | 0.557 | 0.506 | 0.752 | 1.11 | 0.806 | 0.755 | 1.01

NEK6, construct: Full length (from UniProt Q9HC98)
relative phosphorylation
Details | at +1 | at +2 | at +3 | at +4 | at -1 | at -2 | at -3 | at -4 | at -5
A fixed | 0.844 | 1.17 | 0.962 | 0.822 | 1.21 | 1.16 | 1.04 | 1.26 | 1.16
D fixed | 0.481 | 0.764 | 0.624 | 0.699 | 1.47 | 2.91 | 0.911 | 2.11 | 2.07
E fixed | 0.344 | 0.325 | 0.564 | 0.578 | 1.96 | 1.89 | 0.611 | 1.18 | 1.15
F fixed | 1.46 | 0.69 | 0.987 | 0.886 | 0.525 | 0.647 | 1.61 | 0.839 | 0.875
G fixed | 1.02 | 1.27 | 1.69 | 1.26 | 0.75 | 1.75 | 1.06 | 1.13 | 1.36
H fixed | 1.2 | 1.23 | 1.13 | 1.02 | 1.13 | 0.982 | 0.792 | 0.894 | 0.979
I fixed | 0.646 | 0.568 | 0.537 | 0.616 | 0.434 | 0.425 | 0.495 | 0.531 | 0.632
K fixed | 0.65 | 1.61 | 1.4 | 1.78 | 1.22 | 0.663 | 0.48 | 0.837 | 0.849
L fixed | 0.886 | 0.443 | 0.767 | 0.593 | 0.72 | 0.612 | 2.04 | 0.735 | 0.747
M fixed | 1.57 | 0.747 | 0.704 | 0.626 | 0.859 | 0.789 | 1.2 | 0.71 | 0.753
N fixed | 1.2 | 1.87 | 1.24 | 0.917 | 1.38 | 1.6 | 0.869 | 1.29 | 1.16
P fixed | 0.367 | 0.985 | 1.12 | 1.4 | 0.326 | 0.521 | 1.78 | 1.32 | 1.09
Q fixed | 1.68 | 0.722 | 1.02 | 1.07 | 1.56 | 0.728 | 0.62 | 0.894 | 0.819
R fixed | 0.986 | 2.23 | 1.4 | 1.4 | 1.51 | 0.663 | 0.463 | 0.869 | 0.685
V fixed | 0.602 | 0.533 | 0.568 | 0.707 | 0.578 | 0.436 | 0.503 | 0.549 | 0.88
W fixed | 1.5 | 0.87 | 1.38 | 1.36 | 0.619 | 0.577 | 1.25 | 1.1 | 1.04
Y fixed | 1.56 | 0.989 | 0.901 | 1.27 | 0.744 | 0.65 | 1.27 | 0.75 | 0.767
pThr fixed | 0.602 | 0.396 | 0.534 | 0.628 | 0.494 | 0.773 | 0.677 | 0.906 | 0.992
pTyr fixed | 0.822 | 0.356 | 0.653 | 0.545 | 2.57 | 1.53 | 1.01 | 1.01 | 0.799

NEK11, construct: Full length (from UniProt Q8NG66)
relative phosphorylation
Details | at +1 | at +2 | at +3 | at +4 | at -1 | at -2 | at -3 | at -4 | at -5
A fixed | 0.432 | 0.613 | 0.845 | 0.834 | 0.977 | 1.38 | 1.06 | 0.887 | 1.02
D fixed | 0.25 | 0.395 | 0.499 | 0.597 | 0.64 | 0.742 | 0.568 | 0.73 | 0.677
E fixed | 0.234 | 0.349 | 0.53 | 0.606 | 0.59 | 0.579 | 0.643 | 0.659 | 0.709
F fixed | 2.35 | 0.978 | 1.48 | 0.997 | 0.918 | 1.49 | 1.22 | 1.33 | 1.18
G fixed | 0.494 | 0.664 | 0.797 | 0.876 | 1.57 | 1.28 | 1.01 | 1.2 | 1.36
H fixed | 0.625 | 1.42 | 0.962 | 1.28 | 1.1 | 0.909 | 0.976 | 0.929 | 1.11
I fixed | 2 | 0.549 | 0.797 | 0.497 | 0.491 | 0.542 | 0.671 | 0.724 | 0.866
K fixed | 0.563 | 1.85 | 1.3 | 1.96 | 1.67 | 0.867 | 1.12 | 1.06 | 0.901
L fixed | 1.86 | 0.787 | 1.25 | 0.805 | 0.914 | 0.975 | 1.12 | 0.945 | 0.763
M fixed | 2.27 | 1.06 | 1.2 | 0.824 | 1.42 | 1.06 | 1.4 | 1.07 | 1.13
N fixed | 0.573 | 1.06 | 1.05 | 1.11 | 1.23 | 1.42 | 1.18 | 1.08 | 1.03
P fixed | 0.479 | 0.795 | 0.931 | 1 | 0.558 | 1.05 | 0.971 | 1.08 | 0.927
Q fixed | 0.605 | 0.78 | 0.885 | 1.27 | 0.942 | 0.944 | 0.983 | 1.06 | 0.893
R fixed | 0.494 | 1.93 | 0.864 | 1.02 | 1.53 | 0.991 | 1.2 | 1.12 | 1.23
V fixed | 0.926 | 0.566 | 0.965 | 0.695 | 0.605 | 0.601 | 0.696 | 0.778 | 0.863
W fixed | 1.23 | 1.02 | 1.43 | 1.42 | 0.764 | 1.1 | 0.979 | 1.31 | 1.21
Y fixed | 1.62 | 2.17 | 1.21 | 1.21 | 1.08 | 1.06 | 1.21 | 1.03 | 1.13
pThr fixed | 0.998 | 1.15 | 1.06 | 0.672 | 0.94 | 1.38 | 1.37 | 1.47 | 1.17
pTyr fixed | 0.509 | 0.51 | 0.848 | 0.63 | 1.11 | 0.973 | 1.42 | 0.98 | 1.27
